Measurements from patent publication US20080095772A1 (Chugai, published 2008).

Experiments:
human PTHrP (1-34) [1] = molecular target: T1, human PTHrP (1-34) (human); test: ELISA on plate-coated human PTHrP (1-34) (1 µg/ml); bound antibody detected with alkaline phosphatase-conjugated goat anti-human IgG; O.D. 405/620
T1 construct: Synthetic peptide (Peninsula; Peptide Research Institute), coated on ELISA plates at 1 µg/ml or used in solid phase RIA; also called human parathyroid hormone related protein (1-34)
Protocol: An ELISA plate for the determination of antigen binding ability was prepared as follows. Each of the wells of a 96-well plate for ELISA was coated with 100 μl of a solution comprising human PTHrP (1-34) (Peptide Research Institute) prepared in a coating buffer of a concentration of 1 μg/ml and then blocked with 200 μl of a dilution buffer. […] After incubating at room temperature and washing with PBS-Tween20, each well was added with 100 μl of a solution of alkaline phosphatase-conjugated goat anti-human IgG antibodies (TAGO). After incubating at room temperature and washing with PBS-Tween20, each well was added with 1 mg/ml of a substrate solution (“Sigma104”, p-nitrophenylphosphoric acid, SIGMA). The solution was measured for absorbance at −405 nm using Microplate Reader (Bio Rad).

human PTHrP (1-34) [2] = molecular target: T1, human PTHrP (1-34); test: as above; remark: listed apart in the source
Protocol: (§1) An ELISA plate for determining antigen binding ability was prepared as follows. Each of the wells of a 96-well plate for ELISA (Maxisorp, NUNC) was coated with 100 μl of a coating buffer supplemented with 1 μg/ml of human PTHrP (1-34) and then blocked with 200 μl of a dilution buffer. Thereafter, into each of the wells, was added a culture supernatant of the COS-7 cells in which the hybrid antibody or humanized antibody was expressed or a solution of the purified hybrid antibody or the purified humanized antibody in stepwise dilution. After incubating at room temperature and washing with PBS-Tween20, 100 μl of alkaline phosphatase-conjugated goat anti-human IgG antibody (TAGO) was added to each of the wells. […] The solution was measured for absorbance at 405 nm using Microplate Reader (Bio Rad).

human PTHrP (1-34) [3] = molecular target: T1, human PTHrP (1-34); test: as above; remark: listed apart in the source
Protocol: as §1

human PTHrP (1-34) [4] = molecular target: T1, human PTHrP (1-34); test: solid phase RIA of hybridoma supernatants
PTHrP (1-34+Cys) = PTHrP (1-34+Cys) (human, C-terminal Cys coupled to sensor tip CM5 through PDEA (thiol coupling)); test: BIACORE (SPR), PTHrP (1-34+C) immobilised on CM5 through the C-terminal Cys, antibody as analyte
Protocol: In this experiment, kinetic analysis of the antigen-antibody interaction using BIACORE was conducted. PTHrP(1-34+Cys) was used as an antigen and adsorbed onto the sensor tip specifically for C-terminals. Purified antibodies of various concentrations were used as an analyte. From the sensorgram obtained, kinetics parameters (binding rate constant “kass” and dissociation rate constant “kdiss”) were calculated.
As a running buffer, HBS (10 mM HEPES, pH 7.4; 0.15 M NaCl; 3.4 mM EDTA; 0.005% Surfactant P20) at a flow rate of 5 μl/min. was employed. The carboxyl groups of carboxymethyldextran on the sensor tip CM5 were activated by an injection of 100 μl of 0.05M N-hydroxysuccinimide (NHS)/0.2M N-ethyl-N′-(3-dimethylaminopropyl)carbodiimide hydrochloride (EDC) and an injection of 100 μl of 80 mM 2-(2-pyridinyldithio)ethanamine (PDEA)/0.1M borate buffer (pH 8.5), and an additional injection of 10 μl of 5 μg/ml PTHrP (1-34+C)/10 mM sodium acetate buffer (pH 5.0) to adsorbe onto the C-terminals of PTHrP (1-34+C) specifically for Cys residues. Subsequently, an injection of 100 μl of 50 mM (L)-cystein/1M NaCl/0.1M sodium formate buffer (pH 4.3) was conducted to block excessively activated groups. Subsequently, an injection of 10 μl of 0.1M glycine-HCl buffer (pH 2.5) and 10 μl of 10 mM HCl was conducted to wash the substances having non-covalent bonding.
The date file of interest was read and a comparison of the reaction patterns was conducted by overlaying the reaction regions of interest (FIGS. 20-24). […] Further, kinetic analysis of the interaction was conducted using an analysis software specifically designed for BIACORE “BIAevaluation 2.1” (Pharmacia) which is capable of calculating the kinetics parameters (binding rate constant “kass” and dissociation rate constant “kdiss”) by curve cutting (Tables 4 and 5).

B1: chimeric #23-57-137-1 antibody with human κ L chain C region (antibody, V domains shown)
VH: EVQLVESGGDLVKPGGSLKLSCAASGFTFSSYGMSWIRQTPDKRLEWVATISSGGSYTYYPDSVKGRFTISRDNAKNTLYLQMSSLKSEDTAMFYCARQTTMTYFAYWGQGTLVTVSA
VL: QLVLTQSSSASFSLGASAKLTCTLSSQHSTYTIEWYQQQPLKPPKYVMDLKQDGSHSTGDGIPDRFSGSSSGADRYLSISNIQPEDEAMYICGVGDTIKEQFVYVFGGGTKVTVLG
notes: Mouse V regions on a human Cγ1 H chain C region and a human Cκ L chain C region (from HEF-PM1k-gk); also called chimeric antibody (κ); MBC1HcDNA + MBC1L(κ)/neo
binding result (human PTHrP (1-34) [1]): binds

B2: antibody comprising the humanized H chain version "a" and the chimeric L chain (antibody, V domains shown)
VH: QVQLVESGGGVVQPGRSLRLSCAASGFTFSSYGMSWVRQAPGKGLEWVATISSGGSYTYYPDSVKGRFTISRDNSKNTLYLQMNSLRAEDTAVYYCARQTTMTYFAYWGQGTLVTVSS
VL: B1 VL
notes: Human Cγ1 H chain C region
binding result (human PTHrP (1-34) [2]): binds

B3: humanized #23-57-137-1 antibody, H chain version a, L chain version j (antibody, V domains shown)
VH: B2 VH
VL: QLVLTQSPSASASLGASVKLTCTLSSQHSTYTIEWYQQQPEKGPKYLMDLKQDGSHSTGDGIPDRFSGSSSGAERYLTISSLQSEDEADYYCGVGDTIKEQFVYVFGGGTKLTVLG
notes: Human Cγ1 and human Cλ C regions; Expressed in COS-7
binding result (human PTHrP (1-34) [3]): binds

B4: hH / hLf (antibody, V domains shown)
VH: B2 VH
VL: QLVLTQSPSASASLGASVKLTCTLSSQHSTYTIEWHQQQPEKGPRYLMKLKQDGSHSTGDGIPDRFSGSSSGAERYLTISSLQPEDEADYICGVGDTIKEQFVYVFGGGTKLTVL
notes: copies: 2 + 2
binding result (human PTHrP (1-34) [3]): no binding (tested: about 380 ng/ml)

B5: mouse monoclonal antibody #23-57-137-1 (antibody, V domains shown)
VH: B1 VH
VL: B1 VL
notes: Whole mouse antibody with a mouse λ L chain; The H chain cDNA was amplified with the MHC-G1 primer; also called MBC
binding result (human PTHrP (1-34) [4]): binds
Kd (PTHrP (1-34+Cys)): 0.102 nM
koff (PTHrP (1-34+Cys)): 7.38e-05 s⁻¹
kon (PTHrP (1-34+Cys)): 723000 M⁻¹ s⁻¹
